Assay results reported in US20110287017A1.

Target: membrane P-selectin coated in a flow chamber (low and high density) (UniProt P16109)
Experiment: cell-based or functional assay

membrane P-selectin coated in a flow chamber (low and high density), sequence (P16109 42-830 limits assumed): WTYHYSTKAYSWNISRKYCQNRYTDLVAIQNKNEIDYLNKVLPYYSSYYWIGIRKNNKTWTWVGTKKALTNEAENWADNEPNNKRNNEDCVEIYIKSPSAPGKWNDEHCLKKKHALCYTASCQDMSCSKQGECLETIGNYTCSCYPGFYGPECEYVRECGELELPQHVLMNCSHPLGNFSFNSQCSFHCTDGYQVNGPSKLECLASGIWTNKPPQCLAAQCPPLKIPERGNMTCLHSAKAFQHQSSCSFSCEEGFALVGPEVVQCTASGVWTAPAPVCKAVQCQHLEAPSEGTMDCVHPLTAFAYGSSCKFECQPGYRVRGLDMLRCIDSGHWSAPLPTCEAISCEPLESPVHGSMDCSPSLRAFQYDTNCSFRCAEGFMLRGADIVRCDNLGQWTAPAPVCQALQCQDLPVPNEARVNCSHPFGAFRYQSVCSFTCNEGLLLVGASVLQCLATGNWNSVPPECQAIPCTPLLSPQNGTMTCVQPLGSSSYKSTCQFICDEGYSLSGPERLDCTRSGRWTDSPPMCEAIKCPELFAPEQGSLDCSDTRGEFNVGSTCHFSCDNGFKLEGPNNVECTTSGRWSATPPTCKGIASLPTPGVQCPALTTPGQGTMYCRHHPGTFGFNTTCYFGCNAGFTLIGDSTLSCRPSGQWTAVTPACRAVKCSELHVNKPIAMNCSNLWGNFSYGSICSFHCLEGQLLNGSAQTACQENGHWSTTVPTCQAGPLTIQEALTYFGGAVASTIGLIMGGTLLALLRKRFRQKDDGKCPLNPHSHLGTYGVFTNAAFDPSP

time to block rolling neutrophils on high density P-selectin: < 20 min
Substance: G3 mouse monoclonal anti-P-selectin antibody
